From US20220135649A1 (University of California, published 2022)
Ends that are not written are not given here.

T1: wild-type soluble CD40L fragment (residues 118-261) with no N-terminal KGD motif (human, UniProt P29965 118-261)
T1 construct: also called WT CD40L; WT sCD40L; not shown: His tag from the PET28a vector (Ni-NTA purification, anti-His detection)
T1 sequence: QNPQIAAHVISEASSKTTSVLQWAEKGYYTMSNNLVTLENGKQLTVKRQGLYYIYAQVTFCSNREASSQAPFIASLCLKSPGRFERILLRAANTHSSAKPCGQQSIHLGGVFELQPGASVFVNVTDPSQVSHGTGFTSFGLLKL

B1: site 2 peptide of integrin β3 fused to GST (peptide)
chain: QPNDGQSHVGSDNHYSASTTM
modifications: also: fused to GST, order not given here
notes: also called peptide from site 2 of β3; not shown: glutathione S-transferase fusion partner
B2: CD40L G252E mutant (soluble fragment) (ligand)
chain: QNPQIAAHVISEASSKTTSVLQWAEKGYYTMSNNLVTLENGKQLTVKRQGLYYIYAQVTFCSNREASSQAPFIASLCLKSPGRFERILLRAANTHSSAKPCGQQSIHLGGVFELQPGASVFVNVTDPSQVSHGTEFTSFGLLKL
notes: Mutant of the soluble CD40L fragment; also called dnCD40L; CD40L decoy; not shown: His tag from the PET28a vector (Ni-NTA purification, anti-His detection)
B3: CD40L Y170E mutant (soluble fragment) (ligand)
chain: QNPQIAAHVISEASSKTTSVLQWAEKGYYTMSNNLVTLENGKQLTVKRQGLYEIYAQVTFCSNREASSQAPFIASLCLKSPGRFERILLRAANTHSSAKPCGQQSIHLGGVFELQPGASVFVNVTDPSQVSHGTGFTSFGLLKL
notes: Mutant of the soluble CD40L fragment; also called Y170 to E; dnCD40L; not shown: His tag from the PET28a vector (Ni-NTA purification, anti-His detection)
B4: CD40L H224E/G226E mutant (soluble fragment) (ligand)
chain: QNPQIAAHVISEASSKTTSVLQWAEKGYYTMSNNLVTLENGKQLTVKRQGLYYIYAQVTFCSNREASSQAPFIASLCLKSPGRFERILLRAANTHSSAKPCGQQSIELEGVFELQPGASVFVNVTDPSQVSHGTGFTSFGLLKL
notes: as for B2
B5: CD40L HIGMS1 mutant H224Y (soluble fragment) (ligand)
chain: QNPQIAAHVISEASSKTTSVLQWAEKGYYTMSNNLVTLENGKQLTVKRQGLYYIYAQVTFCSNREASSQAPFIASLCLKSPGRFERILLRAANTHSSAKPCGQQSIYLGGVFELQPGASVFVNVTDPSQVSHGTGFTSFGLLKL
notes: not shown: His tag from the PET28a vector (Ni-NTA purification, anti-His detection)
B6: CD40L HIGMS1 mutant G226A (soluble fragment) (ligand)
chain: QNPQIAAHVISEASSKTTSVLQWAEKGYYTMSNNLVTLENGKQLTVKRQGLYYIYAQVTFCSNREASSQAPFIASLCLKSPGRFERILLRAANTHSSAKPCGQQSIHLAGVFELQPGASVFVNVTDPSQVSHGTGFTSFGLLKL
notes: as for B5
B7: CD40L HIGMS1 mutant Q174R (soluble fragment) (ligand)
chain: QNPQIAAHVISEASSKTTSVLQWAEKGYYTMSNNLVTLENGKQLTVKRQGLYYIYARVTFCSNREASSQAPFIASLCLKSPGRFERILLRAANTHSSAKPCGQQSIHLGGVFELQPGASVFVNVTDPSQVSHGTGFTSFGLLKL
notes: as for B5
B8: CD40L HIGMS1 mutant G227V (soluble fragment) (ligand)
chain: QNPQIAAHVISEASSKTTSVLQWAEKGYYTMSNNLVTLENGKQLTVKRQGLYYIYAQVTFCSNREASSQAPFIASLCLKSPGRFERILLRAANTHSSAKPCGQQSIHLGVVFELQPGASVFVNVTDPSQVSHGTGFTSFGLLKL
notes: as for B5
B9: CD40L HIGMS1 mutant T176I (soluble fragment) (ligand)
chain: QNPQIAAHVISEASSKTTSVLQWAEKGYYTMSNNLVTLENGKQLTVKRQGLYYIYAQVIFCSNREASSQAPFIASLCLKSPGRFERILLRAANTHSSAKPCGQQSIHLGGVFELQPGASVFVNVTDPSQVSHGTGFTSFGLLKL
notes: Printed as T1761, read as T176I; also called T1761 (so in the source); not shown: His tag from the PET28a vector (Ni-NTA purification, anti-His detection)
B10: CD40L HIGMS1 mutant L258S (soluble fragment) (ligand)
chain: QNPQIAAHVISEASSKTTSVLQWAEKGYYTMSNNLVTLENGKQLTVKRQGLYYIYAQVTFCSNREASSQAPFIASLCLKSPGRFERILLRAANTHSSAKPCGQQSIHLGGVFELQPGASVFVNVTDPSQVSHGTGFTSFGSLKL
notes: as for B5

The binders below were run against T1, wild-type soluble CD40L fragment … (assay: ELISA-type: immobilized CD40L, site 2 peptide fused to GST, bound GST measured).
B1: binds.

The binders below were run against T2, CD40 fragment (residues 21-144) fused to GST (UniProt P25942 21-144) (assay: ELISA-type: immobilized CD40 (21-144)-GST, CD40L mutant in solution).
T2 construct: range 21-144; Made in E. coli BL21 from PGEX2T (BamHI/EcoRI), purified on glutathione-sepharose; also called CD40 fused to GST; not shown: glutathione S-transferase encoded by the PGEX2T vector
T2 sequence (P25942 21-144): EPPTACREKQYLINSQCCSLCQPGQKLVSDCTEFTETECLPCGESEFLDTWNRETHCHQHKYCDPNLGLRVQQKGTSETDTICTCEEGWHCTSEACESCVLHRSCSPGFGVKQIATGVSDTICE
B2: binds. B3: binds. B4: binds.

The binders below were run against T2, CD40 fragment (residues 21-144) fused … (assay: ELISA-type CD40 binding (as for FIG. 11)).
Method: Bound CD40L mutants were measured using anti-His antibodies. […] Data are shown as mean+/−SEM (n=5).
B5: binds. B6: binds. B7: binds. B8: binds. B9: binds. B10: binds.
